The record followed here is publication PMC7036284 (Chemical research in toxicology, 2019).

Changes are numbered by the printed parent chain.

By stoichiometry N is commonly meant the number of molecules, sites or subunits per partner or assembly.

Series [1] concerns the molecule itself. Description: native gel or EMSA.
Series [2] deals with the molecule itself. The series can be described thus: SEC-MALS. (In general: In gel filtration, larger molecules generally elute earlier.)

B1: wild-type Tsa1 (recombinant, 6X-His tagged) (enzyme, S. cerevisiae)
chain: MVAQVQKQAPTFKKTAVVDGVFDEVSLDKYKGKYVVLAFIPLAFTFVCPTEIIAFSEAAKKFEEQGAQVLFASTDSEYSLLAWTNIPRKEGGLGPINIPLLADTNHSLSRDYGVLIEEEGVALRGLFIIDPKGVIRHITINDLPVGRNVDEALRLVEAFQWTDKNGTVLPCNWTPGAATIKPTVEDSKEYFEAANK
Consider B1, for which the “stoichiometry N” value in series [1] is 10.

B2: F^44L Tsa1 (recombinant, 6X-His tagged) (enzyme, S. cerevisiae)
chain: B1 chain with F44L
Turning to B2, the “stoichiometry N” value in series [2] was found to be 2.

B3: F^44A Tsa1 (recombinant, 6X-His tagged) (enzyme, S. cerevisiae)
chain: B1 chain with F44A
As to B3, in series [1], the “stoichiometry N” value was 2.

B4: FYL Tsa1 (F^44L,Y^78L; recombinant, 6X-His tagged) (enzyme, S. cerevisiae)
chain: B1 chain with F44L, Y78L
B4: the “stoichiometry N” value in series [2] was found to be 2.

B5: FYA Tsa1 (F^44A,Y^78A; recombinant, 6X-His tagged) (enzyme, S. cerevisiae)
chain: B1 chain with F44A, Y78A
For the protein B5, in series [2], the “stoichiometry N” value is 2.

B6: Y^78A Tsa1 (recombinant, 6X-His tagged) (enzyme, S. cerevisiae)
chain: B1 chain with Y78A
Consider B6, for which the “stoichiometry N” value in series [2] came to 2.

B7: Y^78L Tsa1 (recombinant, 6X-His tagged) (enzyme, S. cerevisiae)
chain: B1 chain with Y78L
Turning to B7, the “stoichiometry N” value in series [2] stood at 2.
